Source: the supplement of paper PMC10065799, “High-throughput profiling of sequence recognition by tyrosine kinases and SH2 domains using bacterial peptide display” (eLife, 2023)

Tests used:
[1] = biological target: Fes (UniProt P07332); assay: phosphorylation enrichment, bacterial display (enrichment ratio); higher = better substrate or ligand; peptides without Tyr show the background
[2] = biological target: FGFR1 (UniProt P11362); assay: as above
[3] = tested on: Fer (mouse); assay: as above
[4] = biological target: Fyn (UniProt P06241); assay: as above
Chain of Fyn (P06241 whole entry, looked up): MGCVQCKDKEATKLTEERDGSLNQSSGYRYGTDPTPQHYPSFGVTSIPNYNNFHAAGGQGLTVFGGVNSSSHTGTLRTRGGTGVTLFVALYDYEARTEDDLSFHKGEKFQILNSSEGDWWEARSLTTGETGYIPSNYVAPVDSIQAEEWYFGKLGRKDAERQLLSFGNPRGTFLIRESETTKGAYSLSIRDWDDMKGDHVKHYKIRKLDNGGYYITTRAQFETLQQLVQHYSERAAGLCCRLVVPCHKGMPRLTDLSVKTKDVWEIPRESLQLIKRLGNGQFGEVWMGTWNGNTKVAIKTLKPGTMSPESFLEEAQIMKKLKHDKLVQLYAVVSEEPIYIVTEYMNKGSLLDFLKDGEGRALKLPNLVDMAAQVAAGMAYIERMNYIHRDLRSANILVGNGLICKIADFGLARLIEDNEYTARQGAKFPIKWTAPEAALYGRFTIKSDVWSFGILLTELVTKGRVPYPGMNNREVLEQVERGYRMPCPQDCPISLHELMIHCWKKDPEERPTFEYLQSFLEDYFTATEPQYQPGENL

[5] = tested on: c-Src; assay: as above
[6] = biological target: Jak2 (UniProt O60674); assay: as above
[7] = biological target: Hck (UniProt P08631); assay: as above
Chain of Hck (P08631 whole entry, looked up): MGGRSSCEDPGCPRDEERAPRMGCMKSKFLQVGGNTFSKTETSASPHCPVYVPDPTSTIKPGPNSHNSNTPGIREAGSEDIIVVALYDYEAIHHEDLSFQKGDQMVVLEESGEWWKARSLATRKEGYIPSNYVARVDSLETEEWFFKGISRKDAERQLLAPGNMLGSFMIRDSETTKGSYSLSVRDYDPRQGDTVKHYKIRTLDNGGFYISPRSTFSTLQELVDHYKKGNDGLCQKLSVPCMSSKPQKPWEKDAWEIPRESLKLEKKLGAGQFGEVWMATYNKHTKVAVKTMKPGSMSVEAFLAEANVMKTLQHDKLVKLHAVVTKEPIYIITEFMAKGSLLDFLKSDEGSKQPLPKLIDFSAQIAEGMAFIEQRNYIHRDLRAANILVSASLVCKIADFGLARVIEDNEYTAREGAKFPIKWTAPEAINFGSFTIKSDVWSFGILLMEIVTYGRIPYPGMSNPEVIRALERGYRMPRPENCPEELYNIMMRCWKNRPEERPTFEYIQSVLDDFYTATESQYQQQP

[8] = tested on: c-Abl (mouse); assay: as above
[9] = biological target: EPHB1 (UniProt P54762); assay: as above
Chain of EPHB1 (P54762 whole entry, looked up): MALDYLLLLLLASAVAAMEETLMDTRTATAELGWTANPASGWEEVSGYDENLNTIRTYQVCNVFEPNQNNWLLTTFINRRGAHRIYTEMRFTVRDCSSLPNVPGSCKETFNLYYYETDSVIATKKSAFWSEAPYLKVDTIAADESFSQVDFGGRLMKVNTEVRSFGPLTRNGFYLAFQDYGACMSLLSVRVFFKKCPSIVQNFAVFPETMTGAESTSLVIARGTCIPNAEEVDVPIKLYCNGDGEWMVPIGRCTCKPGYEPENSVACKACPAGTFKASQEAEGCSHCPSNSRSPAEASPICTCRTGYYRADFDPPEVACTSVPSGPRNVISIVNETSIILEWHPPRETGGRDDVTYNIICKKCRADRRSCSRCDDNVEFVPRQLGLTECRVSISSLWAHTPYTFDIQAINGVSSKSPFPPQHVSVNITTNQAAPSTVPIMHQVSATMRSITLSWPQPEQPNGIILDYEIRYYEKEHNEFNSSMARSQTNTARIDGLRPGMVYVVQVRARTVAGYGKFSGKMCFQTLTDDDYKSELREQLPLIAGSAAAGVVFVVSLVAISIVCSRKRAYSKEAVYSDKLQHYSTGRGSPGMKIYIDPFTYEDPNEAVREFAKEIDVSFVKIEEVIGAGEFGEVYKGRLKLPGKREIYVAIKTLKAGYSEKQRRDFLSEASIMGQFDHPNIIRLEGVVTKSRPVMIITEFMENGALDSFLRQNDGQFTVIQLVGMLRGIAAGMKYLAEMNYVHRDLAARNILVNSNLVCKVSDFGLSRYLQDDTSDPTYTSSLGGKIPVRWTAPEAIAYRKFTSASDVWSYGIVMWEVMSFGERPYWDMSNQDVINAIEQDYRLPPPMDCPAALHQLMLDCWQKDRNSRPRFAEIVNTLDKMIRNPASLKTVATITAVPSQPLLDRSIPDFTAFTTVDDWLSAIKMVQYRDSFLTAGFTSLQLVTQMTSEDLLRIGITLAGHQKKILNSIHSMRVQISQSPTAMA

[10] = biological target: EPHB2 (UniProt P29323); assay: as above
[11] = biological target: FGFR3 (UniProt P22607); assay: as above
Chain of FGFR3 (P22607 whole entry, looked up): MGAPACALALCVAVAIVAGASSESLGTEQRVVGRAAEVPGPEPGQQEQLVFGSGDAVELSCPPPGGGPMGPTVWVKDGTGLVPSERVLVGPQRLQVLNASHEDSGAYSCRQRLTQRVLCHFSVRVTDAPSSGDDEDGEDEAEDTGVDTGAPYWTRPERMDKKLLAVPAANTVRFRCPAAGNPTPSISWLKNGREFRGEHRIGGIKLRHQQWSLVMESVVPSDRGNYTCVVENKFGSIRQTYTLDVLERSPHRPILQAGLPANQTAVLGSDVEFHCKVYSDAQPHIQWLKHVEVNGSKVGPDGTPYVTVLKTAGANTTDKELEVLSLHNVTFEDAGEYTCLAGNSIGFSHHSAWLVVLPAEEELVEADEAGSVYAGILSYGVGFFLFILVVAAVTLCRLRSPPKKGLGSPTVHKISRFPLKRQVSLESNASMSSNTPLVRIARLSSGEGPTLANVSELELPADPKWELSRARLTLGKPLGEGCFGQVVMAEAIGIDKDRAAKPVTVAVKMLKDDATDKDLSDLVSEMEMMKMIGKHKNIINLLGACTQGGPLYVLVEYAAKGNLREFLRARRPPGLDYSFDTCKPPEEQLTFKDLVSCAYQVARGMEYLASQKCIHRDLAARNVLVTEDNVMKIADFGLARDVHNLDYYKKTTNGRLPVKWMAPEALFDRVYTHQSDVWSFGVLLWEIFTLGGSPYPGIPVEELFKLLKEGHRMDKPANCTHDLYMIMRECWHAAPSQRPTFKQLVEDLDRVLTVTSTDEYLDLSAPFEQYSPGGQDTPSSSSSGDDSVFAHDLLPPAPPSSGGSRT

[12] = tested on: AncSZ; assay: as above
[13] = biological target: MERTK (UniProt Q12866); assay: as above
Chain of MERTK (Q12866 whole entry, looked up): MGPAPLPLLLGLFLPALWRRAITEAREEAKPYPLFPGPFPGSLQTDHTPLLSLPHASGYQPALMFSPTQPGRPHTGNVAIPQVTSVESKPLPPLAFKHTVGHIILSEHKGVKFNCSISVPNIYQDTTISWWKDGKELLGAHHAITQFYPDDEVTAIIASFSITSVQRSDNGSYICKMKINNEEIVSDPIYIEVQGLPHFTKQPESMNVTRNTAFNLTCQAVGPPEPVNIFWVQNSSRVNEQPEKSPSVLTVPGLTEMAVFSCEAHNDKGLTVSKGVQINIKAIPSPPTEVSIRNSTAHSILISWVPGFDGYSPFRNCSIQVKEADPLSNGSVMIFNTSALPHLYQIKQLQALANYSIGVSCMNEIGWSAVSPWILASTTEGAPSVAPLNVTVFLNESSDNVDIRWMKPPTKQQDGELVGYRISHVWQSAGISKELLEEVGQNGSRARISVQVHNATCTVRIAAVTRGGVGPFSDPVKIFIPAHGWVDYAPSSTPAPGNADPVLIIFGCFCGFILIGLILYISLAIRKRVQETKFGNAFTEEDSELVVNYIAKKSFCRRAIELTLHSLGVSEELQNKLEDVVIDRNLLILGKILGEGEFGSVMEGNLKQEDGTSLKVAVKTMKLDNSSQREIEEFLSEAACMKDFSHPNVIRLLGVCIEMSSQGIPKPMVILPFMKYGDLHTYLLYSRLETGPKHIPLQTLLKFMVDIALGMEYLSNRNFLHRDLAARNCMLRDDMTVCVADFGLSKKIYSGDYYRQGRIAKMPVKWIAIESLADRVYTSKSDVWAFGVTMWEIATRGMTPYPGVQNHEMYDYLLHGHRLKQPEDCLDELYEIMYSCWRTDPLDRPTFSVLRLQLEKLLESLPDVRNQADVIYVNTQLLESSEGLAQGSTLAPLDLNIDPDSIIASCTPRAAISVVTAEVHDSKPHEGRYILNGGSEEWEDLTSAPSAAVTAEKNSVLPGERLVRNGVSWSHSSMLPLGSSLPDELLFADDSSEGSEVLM

[14] = biological target: Grb2 SH2 (UniProt P62993); assay: SH2 binding enrichment of the phosphorylated peptide, bacterial display (enrichment ratio); higher = better substrate or ligand; peptides without Tyr show the background
Chain of Grb2 SH2 (P62993 whole entry, looked up): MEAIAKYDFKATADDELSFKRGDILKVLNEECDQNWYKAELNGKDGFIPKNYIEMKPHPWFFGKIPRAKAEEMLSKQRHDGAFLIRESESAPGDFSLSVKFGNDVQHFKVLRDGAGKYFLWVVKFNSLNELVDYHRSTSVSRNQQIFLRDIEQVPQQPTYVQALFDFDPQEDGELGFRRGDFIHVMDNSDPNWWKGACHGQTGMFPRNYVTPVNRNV

[15] = biological target: SHP2-C SH2; assay: as above
[16] = biological target: c-Src SH2; assay: as above
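Throughout, for SH2 binding enrichment of the phosphorylated peptide, bacterial display: peptide library displayed on the E. coli surface as eCPX fusions, selected cells deep-sequenced, score is each peptide's frequency after selection divided by its frequency in the input.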
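Throughout, for phosphorylation enrichment, bacterial display: 11-residue human phosphosite peptides and single-mutation variants displayed on the E. coli surface, counted by deep sequencing, each peptide's frequency after selection divided by its frequency in the unselected input library; frequency after pTyr selection over input frequency; kinase dosed for 20-30% of maximal phosphorylation in three min.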

Chain of Fes (P07332 whole entry, looked up): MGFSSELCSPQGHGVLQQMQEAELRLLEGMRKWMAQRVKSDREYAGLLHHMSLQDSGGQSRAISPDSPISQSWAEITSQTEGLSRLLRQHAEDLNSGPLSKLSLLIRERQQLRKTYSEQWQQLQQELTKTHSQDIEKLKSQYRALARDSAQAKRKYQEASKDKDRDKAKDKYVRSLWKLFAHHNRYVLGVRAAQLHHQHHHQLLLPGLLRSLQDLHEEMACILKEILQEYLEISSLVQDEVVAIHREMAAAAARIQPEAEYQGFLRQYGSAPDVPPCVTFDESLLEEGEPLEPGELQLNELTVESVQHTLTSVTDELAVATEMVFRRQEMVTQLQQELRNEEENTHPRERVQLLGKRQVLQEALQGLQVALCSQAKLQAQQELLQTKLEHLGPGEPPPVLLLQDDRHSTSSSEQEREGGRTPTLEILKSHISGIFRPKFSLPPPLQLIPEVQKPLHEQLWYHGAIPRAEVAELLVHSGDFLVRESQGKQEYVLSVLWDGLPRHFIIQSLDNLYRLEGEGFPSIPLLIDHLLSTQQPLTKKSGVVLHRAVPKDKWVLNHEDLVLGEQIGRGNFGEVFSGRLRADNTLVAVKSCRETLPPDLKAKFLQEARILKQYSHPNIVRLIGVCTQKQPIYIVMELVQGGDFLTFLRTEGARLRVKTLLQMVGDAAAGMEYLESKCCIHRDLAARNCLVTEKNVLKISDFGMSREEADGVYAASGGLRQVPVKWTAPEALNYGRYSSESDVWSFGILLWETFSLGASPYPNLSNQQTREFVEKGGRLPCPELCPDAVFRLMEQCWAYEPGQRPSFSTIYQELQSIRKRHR

Sequence | phosphorylation enrichment [1] | phosphorylation enrichment [2] | phosphorylation enrichment [3] | phosphorylation enrichment [4] | phosphorylation enrichment [5] | phosphorylation enrichment [6] | phosphorylation enrichment [7] | phosphorylation enrichment [8] | phosphorylation enrichment [9] | phosphorylation enrichment [10] | phosphorylation enrichment [11] | phosphorylation enrichment [12] | phosphorylation enrichment [13] | SH2 binding enrichment [14] | SH2 binding enrichment [15] | SH2 binding enrichment [16]
RRSQSYNPTSG [PLEKHA2_Y185_I186N] | 0.972 | 0.649 | 0.458 | 0.897 | 0.811 | 0.809 | 0.821 | 0.765 | 0.435 | 0.512 | 0.523 | 0.612 | 0.491 | 0.692 | 0.461 | 0.323
RSAGKYDVYLI [MECP2_Y120] | 1.06 | 0.433 | 0.555 | 1.31 | 1.8 | 0.987 | 0.878 | 0.587 | 0.525 | 0.77 | 0.717 | 0.885 | 0.412 | 0.651 | 0.539 | 0.579
RTLTHYKSAVK [ASNS_Y555] | 0.813 | 0.35 | 0.312 | 0.35 | 0.588 | 0.801 | 0.5 | 0.563 | 0.678 | 0.411 | 0.545 | 0.532 | 0.702 | 0.934 | 0.83 | 0.545
RTTIHYNFMCN [TP53_Y234_C229R_YF] | 1.46 | 0.648 | 0.668 | 0.527 | 0.514 | 1.29 | 0.54 | 2.01 | 0.908 | 0.808 | 1.11 | 1.33 | 0.609 | 0.884 | 0.657 | 0.624
RVILRYVNPGT [LAMA3_Y791] | 1.13 | 0.538 | 0.606 | 0.591 | 0.448 | 0.947 | 0.561 | 0.663 | 0.838 | 0.666 | 0.883 | 1.06 | 0.385 | 1.44 | 0.632 | 0.717
RYFTTYDTNGR [CLCA1_Y665] | 0.746 | 0.709 | 0.471 | 0.693 | 0.774 | 0.742 | 0.943 | 0.296 | 0.672 | 0.698 | 0.598 | 0.657 | 0.557 | 0.777 | 1.24 | 0.556
RYVTRHIYNRE [HLA-DQB1_Y62_Y62H] | 0.777 | 0.291 | 0.469 | 0.73 | 0.874 | 0.589 | 0.662 | 0.751 | 0.525 | 0.795 | 0.525 | 0.966 | 0.857 | 0.718 | 0.64 | 0.414
SAPDSYIGIGN [SLC38A4_Y27] | 0.742 | 0.502 | 0.404 | 0.511 | 0.437 | 0.739 | 0.495 | 0.594 | 0.484 | 0.533 | 0.556 | 0.669 | 0.59 | 0.769 | 0.764 | 0.584
SAPDSYIRIGN [SLC38A4_Y27_G29R] | 0.796 | 0.424 | 0.35 | 0.357 | 0.352 | 0.52 | 0.47 | 0.483 | 0.359 | 0.396 | 0.436 | 0.594 | 0.488 | 0.79 | 0.757 | 0.814
SAPPSHEETVA [LITAF_Y23_Y23H] | 0.597 | 0.374 | 0.524 | 0.481 | 0.404 | 0.817 | 0.342 | 0.489 | 0.435 | 0.393 | 0.84 | 0.453 | 0.338 | 0.62 | 0.549 | 0.4
SDFSRYARTSI [TERT_Y949_S948R_YF] | 0.6 | 0.48 | 0.358 | 0.408 | 0.442 | 0.502 | 0.484 | 0.502 | 0.463 | 0.466 | 0.487 | 0.537 | 0.48 | 1.05 | 0.901 | 0.476
SDQRRYSLIDP [CLIP2_Y972_R977P] | 0.719 | 0.533 | 0.545 | 0.574 | 0.383 | 0.587 | 0.466 | 0.488 | 0.56 | 0.567 | 0.64 | 0.683 | 1.3 | 0.889 | 3.82 | 15.9
SDQRRYSLIDR [CLIP2_Y972] | 0.558 | 0.356 | 0.412 | 0.394 | 0.358 | 0.479 | 0.366 | 0.467 | 0.327 | 0.444 | 0.421 | 0.508 | 0.419 | 0.833 | 0.861 | 3.35
SDYSSYARTSI [TERT_Y949] | 0.558 | 0.553 | 0.542 | 0.845 | 0.897 | 0.725 | 0.862 | 0.639 | 1.63 | 2.84 | 0.7 | 0.792 | 0.52 | 0.725 | 0.637 | 0.535
SEDANYMRVSC [TTC3_Y1288_K1289M] | 0.958 | 0.735 | 0.645 | 0.529 | 0.468 | 0.743 | 0.563 | 0.7 | 2.98 | 1.42 | 0.742 | 1.03 | 0.455 | 0.819 | 0.746 | 0.534
SEDSEYYRAFE [CASQ2_Y178_K180R] | 1.29 | 0.869 | 0.515 | 0.823 | 0.824 | 1.29 | 0.685 | 0.89 | 0.67 | 0.696 | 1.24 | 2.7 | 0.523 | 0.901 | 0.67 | 0.47
